Measurements: doi:10.1101/2025.04.25.650293

Target: ELMSAN1 (human (endogenous in 143B)) (UniProt Q6PJG2)
Assay: affinity purification with mass spectrometry

Sequence of UniProt Q6PJG2 (Q6PJG2 whole entry): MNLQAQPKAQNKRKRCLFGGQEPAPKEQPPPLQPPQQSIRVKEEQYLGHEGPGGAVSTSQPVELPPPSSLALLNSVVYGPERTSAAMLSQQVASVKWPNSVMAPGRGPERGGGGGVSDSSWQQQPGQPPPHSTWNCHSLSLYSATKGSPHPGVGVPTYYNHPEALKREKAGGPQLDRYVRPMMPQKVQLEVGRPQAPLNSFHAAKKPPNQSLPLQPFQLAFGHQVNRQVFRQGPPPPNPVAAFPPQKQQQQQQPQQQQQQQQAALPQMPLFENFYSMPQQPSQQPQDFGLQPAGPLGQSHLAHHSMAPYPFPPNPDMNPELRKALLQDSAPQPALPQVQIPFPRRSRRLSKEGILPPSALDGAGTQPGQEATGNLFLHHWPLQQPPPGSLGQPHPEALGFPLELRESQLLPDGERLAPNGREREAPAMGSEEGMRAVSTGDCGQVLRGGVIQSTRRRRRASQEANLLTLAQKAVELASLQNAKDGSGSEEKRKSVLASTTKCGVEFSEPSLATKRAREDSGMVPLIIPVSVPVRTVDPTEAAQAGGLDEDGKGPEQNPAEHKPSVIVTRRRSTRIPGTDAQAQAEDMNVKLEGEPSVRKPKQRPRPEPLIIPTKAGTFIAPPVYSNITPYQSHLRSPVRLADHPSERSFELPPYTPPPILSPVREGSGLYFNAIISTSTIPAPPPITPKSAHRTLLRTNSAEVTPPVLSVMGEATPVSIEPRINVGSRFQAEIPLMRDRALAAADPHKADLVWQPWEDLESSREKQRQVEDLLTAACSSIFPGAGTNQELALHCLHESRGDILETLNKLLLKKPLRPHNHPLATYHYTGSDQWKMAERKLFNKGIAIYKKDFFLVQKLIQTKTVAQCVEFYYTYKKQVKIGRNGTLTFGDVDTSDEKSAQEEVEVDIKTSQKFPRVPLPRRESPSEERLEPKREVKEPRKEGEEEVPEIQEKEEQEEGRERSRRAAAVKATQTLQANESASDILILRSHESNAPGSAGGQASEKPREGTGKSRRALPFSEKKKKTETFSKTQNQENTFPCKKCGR

- fold decrease in binding with ISX9 against DMSO: > 100 fold
Substance: PDHX (from UniProt O00330 54-501) (natural protein)
